The values below come from patent publication US9789130B2, “Method for blocking HIV entry into dendritic cells by inhibiting sialoadhesin-sialyllactose binding interactions with gangliosides” (LABORATORIOS DEL DR. ESTEVE, S.A., priority 2011, dated 2017).

In the assay the target is T1, Siglec-1 (Homo sapiens, UniProt Q9BZZ2).
T1 construct: Siglec-1 expressed in LPS mDCs capture distinct ganglioside containing vesicles; endogenous in cells; host or cells: LPS-matured monocyte-derived dendritic cells (LPS mDCs) from donor PBMCs
T1 sequence (Q9BZZ2 20-1709): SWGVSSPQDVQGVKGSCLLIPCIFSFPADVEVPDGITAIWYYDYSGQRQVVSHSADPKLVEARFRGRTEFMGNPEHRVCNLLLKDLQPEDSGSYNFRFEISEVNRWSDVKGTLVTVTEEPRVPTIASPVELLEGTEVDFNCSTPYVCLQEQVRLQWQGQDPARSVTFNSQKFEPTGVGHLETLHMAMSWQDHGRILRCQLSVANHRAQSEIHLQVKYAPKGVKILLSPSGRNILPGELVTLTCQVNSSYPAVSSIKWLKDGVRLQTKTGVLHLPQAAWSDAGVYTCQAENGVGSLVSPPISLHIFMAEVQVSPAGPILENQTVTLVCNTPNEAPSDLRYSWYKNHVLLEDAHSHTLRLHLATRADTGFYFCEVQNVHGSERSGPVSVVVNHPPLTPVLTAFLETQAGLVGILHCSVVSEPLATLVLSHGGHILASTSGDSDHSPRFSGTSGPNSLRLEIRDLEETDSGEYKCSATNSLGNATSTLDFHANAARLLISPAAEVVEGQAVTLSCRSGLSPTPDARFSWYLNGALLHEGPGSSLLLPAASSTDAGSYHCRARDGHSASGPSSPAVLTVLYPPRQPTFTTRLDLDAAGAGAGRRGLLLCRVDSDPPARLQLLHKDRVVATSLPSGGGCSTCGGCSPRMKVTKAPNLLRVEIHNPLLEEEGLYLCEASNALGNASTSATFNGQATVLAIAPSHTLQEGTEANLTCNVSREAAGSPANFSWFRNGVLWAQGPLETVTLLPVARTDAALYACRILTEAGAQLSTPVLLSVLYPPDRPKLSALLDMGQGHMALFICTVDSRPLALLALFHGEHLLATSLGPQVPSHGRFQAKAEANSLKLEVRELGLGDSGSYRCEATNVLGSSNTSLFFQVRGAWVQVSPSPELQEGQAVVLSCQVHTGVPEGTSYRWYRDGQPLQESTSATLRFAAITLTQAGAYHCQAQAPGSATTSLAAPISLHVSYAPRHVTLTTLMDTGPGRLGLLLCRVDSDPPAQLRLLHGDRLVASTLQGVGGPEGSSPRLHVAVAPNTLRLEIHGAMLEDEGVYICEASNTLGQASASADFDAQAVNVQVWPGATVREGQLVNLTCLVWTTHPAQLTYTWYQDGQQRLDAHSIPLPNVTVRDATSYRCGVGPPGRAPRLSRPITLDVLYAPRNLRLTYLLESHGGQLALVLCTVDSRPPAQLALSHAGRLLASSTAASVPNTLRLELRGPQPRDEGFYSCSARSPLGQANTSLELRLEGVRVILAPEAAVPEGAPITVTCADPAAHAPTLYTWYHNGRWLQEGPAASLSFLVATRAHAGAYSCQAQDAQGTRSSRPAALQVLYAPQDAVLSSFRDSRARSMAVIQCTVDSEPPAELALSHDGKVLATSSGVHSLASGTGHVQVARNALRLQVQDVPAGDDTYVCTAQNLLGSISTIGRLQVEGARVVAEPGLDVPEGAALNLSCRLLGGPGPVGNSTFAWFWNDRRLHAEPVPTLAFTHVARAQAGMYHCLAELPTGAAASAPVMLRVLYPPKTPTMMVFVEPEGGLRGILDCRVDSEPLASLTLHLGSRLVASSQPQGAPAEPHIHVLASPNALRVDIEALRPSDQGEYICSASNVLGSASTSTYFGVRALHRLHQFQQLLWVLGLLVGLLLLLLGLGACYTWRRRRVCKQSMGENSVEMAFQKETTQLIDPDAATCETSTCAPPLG
The assay is described as follows: VLP capture by LPS mDCs pre-incubated with α-Siglec-1 mAbs. It counts as cell-based. As to conditions: 2 μg/ml mAb 7D2 treated with at least 100-fold molar excess of human recombinant protein. How it is done: FIG. 11. Siglec-1 expressed in LPS mDCs capture distinct ganglioside containing vesicles, such as HIV-1 viral-like particles, liposomes, and exosomes. Capture of VLPHIV-Gag-eGFP by LPS mDCs that had been pre-incubated with decreasing concentrations of α-Siglec-1 mAb 7D2 before VLP exposure for 30 min at 37° C.
FIG. 12. Capture of VLPHIV-Gag-eGFP by LPS mDCs that had been pre-incubated with or without 2 μg/ml of α-Siglec-1 mAb 7D2 previously treated or not with at least a 100-fold molar excess of the indicated human recombinant proteins. Of note, Siglec-14 shares 100% of amino acid homology with Siglec-5 in the V-set domain.
FIG. 13. Blocking effect of α-Siglec-1 mAb 7-239. (A) Capture of VLPHIV-Gag-eGFP by LPS mDCs that had been pre-incubated with decreasing concentrations of α-Siglec-1 mAb 7-239 before VLP exposure for 30 min at 37° C. […] (B) Capture of VLPHIV-Gag-eGFP by LPS mDCs that had been pre-incubated with 10 μg/ml of the indicated mAbs before VLP exposure for 3 h at 37° C.

B1: purified Siglec-7: human recombinant Siglec-7 protein used to pre-treat mAb 7D2 (protein, UniProt Q9Y286 19-467, looked up)
Sialic acid-binding Ig-like …: QKSNRKDYSLTMQSSVTVQEGMCVHVRCSFSYPVDSQTDSDPVHGYWFRAGNDISWKAPVATNNPAWAVQEETRDRFHLLGDPQTKNCTLSIRDARMSDAGRYFFRMEKGNIKWNYKYDQLSVNVTALTHRPNILIPGTLESGCFQNLTCSVPWACEQGTPPMISWMGTSVSPLHPSTTRSSVLTLIPQPQHHGTSLTCQVTLPGAGVTTNRTIQLNVSYPPQNLTVTVFQGEGTASTALGNSSSLSVLEGQSLRLVCAVDSNPPARLSWTWRSLTLYPSQPSNPLVLELQVHLGDEGEFTCRAQNSLGSQHVSLNLSLQQEYTGKMRPVSGVLLGAVGGAGATALVFLSFCVIFIVVRSCRKKSARPAADVGDIGMKDANTIRGSASQGNLTESWADDNPRHHGLAAHSSGEEREIQYAPLSFHKGEPQDLSGQEATNNEYSEIKIPK
For the molecule B1, the “VLP capture by LPS mDCs with mAb 7D2 pre-incubated with purified protein” value is on record as “had no effect”.

B2: CD83: human recombinant CD83 protein used to pre-treat mAb 7D2 (protein, UniProt Q01151 20-205, looked up)
CD83 antigen: TPEVKVACSEDVDLPCTAPWDPQVPYTVSWVKLLEGGEERMETPQEDHLRGQHYHQKGQNGSFDAPNERPYSLKIRNTTSCNSGTYRCTLQDPDGQRNLSGKVILRVTGCPAQRKEETFKKYRAEIVLLLALVIFYLTLIIFTCKFARLQSIFPDFSKAGMERAFLPVTSPNKHLGLVTPHKTELV
Take B2: the “VLP capture by LPS mDCs with mAb 7D2 pre-incubated with purified protein” value is given as “had no effect”.
